Results as given in patent publication US20210284709A1 (JUNO THERAPEUTICS, published 2021).

Legend:
[1] = target: T1, HLA-A2/E6(29-38) tetramer (human; HPV 16); assay: flow cytometry, tetramer + anti-CD8; transfected mix of CD8- and CD8+ Jurkat-derived cells;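 note: CD4+ and CD4+/CD8+ cell mixtures transiently given TCR plasmids, analysed 48 h post-transfection by flow cytometry with E6(29-38)–HLA-A*02:01 tetramer plus anti-CD8 antibody co-stain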
T1 construct: also called E6(29-38) peptide-MHC tetramer; E6 tet
Description: (§1) For transfection, the CD4+ and CD4+/CD8+ cell mixtures were transiently transfected with TCR-encoding plasmids and 48 hours after transfection, cells were assessed by flow cytometry for (1) binding of the target peptide in the context of an MHC molecule (HLA:A02:01) by staining with an E6(29-38) peptide- or an E7(11-19) peptide-MHC tetramer reagent, and/or (2) CD8+ independent binding of the target by co-staining the tetramer-labeled cells with an anti-CD8 antibody.

[2] = target: T1, HLA-A2/E6(29-38) tetramer; assay: flow cytometry, tetramer + anti-CD8; transfected Jurkat-derived cells, CD8+ cells
Description: as §1

[3] = target: HLA-A2/E7(11-19) tetramer (human; HPV 16); assay: cell-based or functional assay
[4] = target: T1, HLA-A2/E6(29-38) tetramer; assay: cell-based or functional assay

Binder | % cells E6 tet+/CD8+ quadrant [1] | % cells E6 tet+/CD8- quadrant [1] | % cells E6 tet+/CD8+ quadrant [2] | % cells E6 tet+/CD8- quadrant [2] | % CD8+/IC IFNγ+ [3] | % CD8+/IC IFNγ+ [4]
TCR 27 (codon-optimized, cysteine-modified) (TCR, V domains shown) V domain 1: DAKTTQPNSMESNEEEPVHLPCNHSTISGTDYIHWYRQLPSQGPEYVIHGLTSNVNNRMASLAIAEDRKSSTLILHRATLRDAAVYYCILRVPPQSGGYQKVTFGTGTKLQVIP V domain 2: NAGVTQTPKFQVLKTGQSMTLQCAQDMNHNSMYWYRQDPGMGLRLIYYSASEGTTDKGEVPNGYNVSRLNKREFSLRLESAAPSQTSVYFCASSEFGSLNEKLFFGSGTQLSVLE | 15.8% | 3.5% | 24.5% | 0.02% | – | –
modified version of TCR 5 (TCR, V domains shown) V domain 1: AQKITQTQPGMFVQEKEAVTLDCTYDTSDQSYGLFWYKQPSSGEMIFLIYQGSYDEQNATEGRYSLNFQKARKSANLVISASQLGDSAMYFCAMREGTGTSYGKLTFGQGTILTVHP V domain 2: DVKVTQSSRYLVKRTGEKVFLECVQDMDHENMFWYRQDPGLGLRLIYFSYDVKMKEKGDIPEGYSVSREKKERFSLILESASTNQTSMYLCASSPWGETHQPQHFGDGTRLSILE | – | – | – | – | 7.22% | 43.7%
TCR 24 (codon-optimized, cysteine-modified) (TCR, V domains shown) V domain 1: AQKITQTQPGMFVQEKEAVTLDCTYDTSDQSYGLFWYKQPSSGEMIFLIYQGSYDEQNATEGRYSLNFQKARKSANLVISASQLGDSAMYFCAMREGRGDSWGKLQFGAGTQVVVTP V domain 2: DVKVTQSSRYLVKRTGEKVFLECVQDMDHENMFWYRQDPGLGLRLIYFSYDVKMKEKGDIPEGYSVSREKKERFSLILESASTNQTSMYLCASSPFGRGSYEQYFGPGTRLTVTE | 55% | 23.5% | 29.1% | 0.13% | – | –
TCR 23 (codon-optimized, cysteine-modified) (TCR, V domains shown) V domain 1: AQKITQTQPGMFVQEKEAVTLDCTYDTSDQSYGLFWYKQPSSGEMIFLIYQGSYDEQNATEGRYSLNFQKARKSANLVISASQLGDSAMYFCAMSPPGGSARQLTFGSGTQLTVLP V domain 2: DVKVTQSSRYLVKRTGEKVFLECVQDMDHENMFWYRQDPGLGLRLIYFSYDVKMKEKGDIPEGYSVSREKKERFSLILESASTNQTSMYLCASSPWGQSNQPQHFGDGTRLSILE | 52.5% | 22.5% | 43.6% | 0.18% | – | –
TCR 17 (codon-optimized, cysteine-modified) (TCR, V domains shown) V domain 1: AQKITQTQPGMFVQEKEAVTLDCTYDTSDPSYGLFWYKQPSSGEMIFLIYQGSYDQQNATEGRYSLNFQKARKSANLVISASQLGDSAMYFCAMREGRGDKIIFGKGTRLHILP V domain 2: DVKVTQSSRYLVKRTGEKVFLECVQDMDHENMFWYRQDPGLGLRLIYFSYDVKMKEKGDIPEGYSVSREKKERFSLILESASTNQTSMYLCASSLWGRSNQPQHFGDGTRLSILE | 36.2% | 21.3% | 34.7% | 0.17% | – | –
TCR 18 (codon-optimized, cysteine-modified) (TCR, V domains shown) V domain 1: KQEVTQIPAALSVPEGENLVLNCSFTDSAIYNLQWFRQDPGKGLTSLLLIQSSQREQTSGRLNASLDKSSGRSTLYIAASQPGDSATYLCAEGNAGGTSYGKLTFGQGTILTVHP V domain 2: DVKVTQSSRYLVKRTGEKVFLECVQDMDHENMFWYRQDPGLGLRLIYFSYDVKMKEKGDIPEGYSVSREKKERFSLILESASTNQTSMYLCASSFWGRSNSPLHFGNGTRLTVTE | 23.3% | 3.61% | 50.4% | 0.045% | – | –
modified version of TCR 7 (TCR, V domains shown) V domain 1: KNQVEQSPQSLIILEGKNCTLQCNYTVSPFSNLRWYKQDTGRGPVSLTIMTFSENTKSNGRYTATLDADTKQSSLHITASQLSDSASYICVVSRDNYGQNFVFGPGTRLSVLP V domain 2: EPEVTQTPSHQVTQMGQEVILRCVPISNHLYFYWYRQILGQKVEFLVSFYNNEISEKSEIFDDQFSVERPDGSNFTLKIRSTKLEDSAMYFCAITDRTNYGYTFGSGTRLTVVE | – | – | – | – | 62.4% | 70.5%
modified version of TCR 4 (TCR) TCR alpha: DAKTTQPNSMESNEEEPVHLPCNHSTISGTDYIHWYRQLPSQGPEYVIHGLTSNVNNRMASLAIAEDRKSSTLILHRATLRDAAVYYCILLVIRGTSYGKLTFGQGTILTVHPNIQNPDPAVYQLRDSKSSDKSVCLFTDFDSQTNVSQSKDSDVYITDKCVLDMRSMDFKSNSAVAWSNKSDFACANAFNNSIIPEDTFFPSPESSCDVKLVEKSFETDTNLNFQNLSVIGFRILLLKVAGFNLLMTLRLWSS TCR beta: DTGVSQDPRHKITKRGQNVTFRCDPISEHNRLYWYRQTLGQGPEFLTYFQNEAQLEKSRLLSDRFSAERPKGSFSTLEIQRTEQGDSAMYLCASSPGGGNTEAFFGQGTRLTVVEDLNKVFPPEVAVFEPSEAEISHTQKATLVCLATGFFPDHVELSWWVNGKEVHSGVCTDPQPLKEQPALNDSRYCLSSRLRVSATFWQNPRNHFRCQVQFYGLSENDEWTQDRAKPVTQIVSAEAWGRADCGFTSVSYQQGVLSATILYEILLGKATLYAVLVSALVLMAMVKRKDF | – | – | – | – | 2.5% | 94.2%
TCR 22 (codon-optimized, cysteine-modified) (TCR, V domains shown) V domain 1: GQNIDQPTEMTATEGAIVQINCTYQTSGFNGLFWYQQHAGEAPTFLSYNVLDGLEEKGRFSSFLSRSKGYSYLLLKELQMKDSASYLCAVRARMDSNYQLIWGAGTKLIIKP V domain 2: DAGVTQSPTHLIKTRGQHVTLRCSPISGHKSVSWYQQVLGQGPQFIFQYYEKEERGRGNFPDRFSARQFPNYSSELNVNALLLGDSALYLCASSRTENYGYTFGSGTRLTVVE | – | – | 51.2% | 0.14% | – | –
TCR 21 (codon-optimized, cysteine-modified) (TCR, V domains shown) V domain 1: AQKITQTQPGMFVQEKEAVTLDCTYDTSDQSYGLFWYKQPSSGEMIFLIYQGSYDEQNATEGRYSLNFQKARKSANLVISASQLGDSAMYFCAMREGRVTGGGNKLTFGTGTQLKVEL V domain 2: NAGVTQTPKFQVLKTGQSMTLQCAQDMNHNSMYWYRQDPGMGLRLIYYSASEGTTDKGEVPNGYNVSRLNKREFSLRLESAAPSQTSVYFCASRPWGNQNTEAFFGQGTRLTVVE | 28.8% | 32.7% | 51.6% | 0.22% | – | –
modified version of TCR 3 (TCR) TCR alpha: AQKITQTQPGMFVQEKEAVTLDCTYDTSDQSYGLFWYKQPSSGEMIFLIYQGSYDEQNATEGRYSLNFQKARKSANLVISASQLGDSAMYFCAMREGRGFKTIFGAGTRLFVKANIQKPDPAVYQLRDSKSSDKSVCLFTDFDSQTNVSQSKDSDVYITDKCVLDMRSMDFKSNSAVAWSNKSDFACANAFNNSIIPADTFFPSPESSCDVKLVEKSFETDTNLNFQNLSVIGFRILLLKVAGFNLLMTLRLWSS TCR beta: GAGVSQSPRYKVAKRGQDVALRCDPISGHVSLFWYQQALGQGPEFLTYFQNEAQLDKSGLPSDRFFAERPEGSVSTLKIQRTQQEDSAVYLCASSHLAGFTGELFFGEGSRLTVLEDLKNVFPPEVAVFEPSEAEISHTQKATLVCLATGFYPDHVELSWWVNGKEVHSGVCTDPQPLKEQPALNDSRYCLSSRLRVSATFWQNPRNHFRCQVQFYGLSENDEWTQDRAKPVTQIVSAEAWGRADCGFTSESYQQGVLSATILYEILLGKATLYAVLVSALVLMAMVKRKDSRG | – | – | – | – | 2.51% | 95.1%
modified version of TCR 8 (TCR, V domains shown) V domain 1: KQEVTQIPAALSVPEGENLVLNCSFTDSAIYNLQWFRQDPGKGLTSLLLIQSSQREQTSGRLNASLDKSSGRSTLYIAASQPGDSATYLCAVRPLGNTPLVFGKGTRLSVIA V domain 2: KVTQSSRYLVKRTGEKVFLECVQDMDHENMFWYRQDPGLGLRLIYFSYDVKMKEKGDIPEGYSVSREKKERFSLILESASTNQTSMYLCASSLWGASTDTQYFGPGTRLTVLE | – | – | – | – | 11.4% | 95%
